Assay [1] addresses T1, crosslinked human fibrin treated by human factor XIIIa (human, UniProt P02671 36-629; P02675 45-491; P02679 27-437, crosslinked by factor XIIIa).
T1 construct: Coated human fibrinogen treated with thrombin and 0.55 ug factor XIIIa (Zedira) per well; also called crosslinked fibrin
T1 sequence (looked up) 1: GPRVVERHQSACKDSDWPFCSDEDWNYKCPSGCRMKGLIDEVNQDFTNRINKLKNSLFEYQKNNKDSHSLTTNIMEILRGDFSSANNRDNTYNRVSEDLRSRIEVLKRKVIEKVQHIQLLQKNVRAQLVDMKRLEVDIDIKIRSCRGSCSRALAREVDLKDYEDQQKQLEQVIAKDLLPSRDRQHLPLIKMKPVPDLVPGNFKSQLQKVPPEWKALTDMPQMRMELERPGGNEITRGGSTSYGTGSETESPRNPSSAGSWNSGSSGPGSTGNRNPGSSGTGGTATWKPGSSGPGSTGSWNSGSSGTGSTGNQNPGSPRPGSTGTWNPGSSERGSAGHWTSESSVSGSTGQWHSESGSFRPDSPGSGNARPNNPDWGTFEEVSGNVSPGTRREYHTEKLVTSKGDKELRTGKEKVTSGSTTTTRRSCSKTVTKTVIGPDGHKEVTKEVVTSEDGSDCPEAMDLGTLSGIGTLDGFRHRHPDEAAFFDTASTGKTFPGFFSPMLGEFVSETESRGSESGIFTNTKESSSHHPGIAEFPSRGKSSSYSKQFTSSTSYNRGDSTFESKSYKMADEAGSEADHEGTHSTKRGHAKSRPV
T1 sequence (looked up) 2: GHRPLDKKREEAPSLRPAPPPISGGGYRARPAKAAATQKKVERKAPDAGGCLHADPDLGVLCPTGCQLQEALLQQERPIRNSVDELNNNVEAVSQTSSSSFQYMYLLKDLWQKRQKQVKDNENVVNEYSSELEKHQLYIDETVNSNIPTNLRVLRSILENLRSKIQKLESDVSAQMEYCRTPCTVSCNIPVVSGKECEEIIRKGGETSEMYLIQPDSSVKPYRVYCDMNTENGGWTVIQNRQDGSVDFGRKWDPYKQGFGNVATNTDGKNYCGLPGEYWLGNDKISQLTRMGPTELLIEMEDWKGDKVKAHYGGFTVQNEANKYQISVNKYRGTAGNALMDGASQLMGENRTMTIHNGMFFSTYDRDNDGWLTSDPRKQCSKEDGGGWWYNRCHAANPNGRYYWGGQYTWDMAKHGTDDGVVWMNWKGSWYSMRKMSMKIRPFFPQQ
T1 sequence (looked up) 3: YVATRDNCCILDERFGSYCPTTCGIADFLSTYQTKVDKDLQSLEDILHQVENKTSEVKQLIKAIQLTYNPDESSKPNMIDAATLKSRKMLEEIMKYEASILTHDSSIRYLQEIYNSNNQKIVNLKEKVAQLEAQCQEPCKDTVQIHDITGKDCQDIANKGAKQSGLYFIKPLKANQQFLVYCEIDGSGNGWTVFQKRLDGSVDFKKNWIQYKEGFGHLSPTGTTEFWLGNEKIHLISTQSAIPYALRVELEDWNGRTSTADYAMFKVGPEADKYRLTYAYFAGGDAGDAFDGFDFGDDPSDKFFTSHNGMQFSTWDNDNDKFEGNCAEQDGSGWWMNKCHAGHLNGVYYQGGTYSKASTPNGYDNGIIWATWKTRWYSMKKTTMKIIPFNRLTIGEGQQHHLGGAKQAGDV
In words: ELISA after storage at 4 C for 3 or 6 days, HRP-protein L. How it is done: (§1) To evaluate the stability of reteplase-(3D5 scFv) after storage, the reteplase-(3D5 scFv) was stored at 4° C. for 3, 6 and 30 days, and then SDS-PAGE and ELISA analysis were performed.
(§2) 96-well polystyrene microplates were coated with human fibrinogen (Sigma) (20 μg/mL) in PBS buffer (100 μL/well). After overnight incubation at 4° C., the coated wells were washed with PBS buffer. To induce the cross-linking of human fibrin, coated wells was incubated at 37° C. for 1 hour with human α-thrombin (Sigma) at a final concentration of 1 U/mL in TBS buffer with 2 mM CaCl₂ and 7 mM L-cystine (Merck). After blocking the wells with a blocking buffer (5% non-fat dry milk/PBS), 100 μL of reteplase-(3D5-scFv) at a final concentration of 0.1, 1 and 10 μg/mL were added to each well and incubate at room temperature for 1 hour. Thereafter, the plates were washed three times, and HRP-conjugated protein L diluted to 1/5000 was added to the wells and incubated for 1 hour at room temperature. The wells were washed three times and added with 100 μL of 3,3′,5,5′-Tetramethylbenzidine (TMB) substrate buffer. 5 minutes later, the color development was stopped with 1 M HCl. The optical density (OD) was measured at 450 nm using a microplate reader (Molecular Devices) and the data were processed using Graph Pad Prism software. […]
(ELISA stands for enzyme-linked immunosorbent assay.)

The target of assay [2] is T2, human fibrin (human fibrinogen coated on the plate and treated with thrombin) (human, UniProt P02671 36-629; P02675 45-491; P02679 27-437).
T2 construct: Made on the plate: coated human fibrinogen (Sigma) treated with 1.0 U/mL thrombin, CaCl2 and L-cysteine
T2 sequence (looked up) 1: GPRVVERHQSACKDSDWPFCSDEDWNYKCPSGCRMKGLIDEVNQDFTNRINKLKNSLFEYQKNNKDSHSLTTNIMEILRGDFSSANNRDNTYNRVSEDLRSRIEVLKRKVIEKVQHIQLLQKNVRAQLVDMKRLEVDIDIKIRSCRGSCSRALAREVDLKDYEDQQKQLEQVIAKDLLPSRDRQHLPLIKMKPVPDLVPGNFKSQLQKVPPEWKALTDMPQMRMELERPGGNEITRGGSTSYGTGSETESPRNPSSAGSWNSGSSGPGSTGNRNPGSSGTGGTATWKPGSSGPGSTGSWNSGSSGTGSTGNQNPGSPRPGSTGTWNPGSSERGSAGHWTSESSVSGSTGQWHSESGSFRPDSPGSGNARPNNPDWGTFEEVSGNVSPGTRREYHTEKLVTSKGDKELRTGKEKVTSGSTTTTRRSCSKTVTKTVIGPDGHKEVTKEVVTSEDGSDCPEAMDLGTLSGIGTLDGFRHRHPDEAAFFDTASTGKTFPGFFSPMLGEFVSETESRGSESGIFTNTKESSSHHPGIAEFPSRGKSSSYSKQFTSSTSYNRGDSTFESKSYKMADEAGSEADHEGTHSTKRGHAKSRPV
T2 sequence (looked up) 2: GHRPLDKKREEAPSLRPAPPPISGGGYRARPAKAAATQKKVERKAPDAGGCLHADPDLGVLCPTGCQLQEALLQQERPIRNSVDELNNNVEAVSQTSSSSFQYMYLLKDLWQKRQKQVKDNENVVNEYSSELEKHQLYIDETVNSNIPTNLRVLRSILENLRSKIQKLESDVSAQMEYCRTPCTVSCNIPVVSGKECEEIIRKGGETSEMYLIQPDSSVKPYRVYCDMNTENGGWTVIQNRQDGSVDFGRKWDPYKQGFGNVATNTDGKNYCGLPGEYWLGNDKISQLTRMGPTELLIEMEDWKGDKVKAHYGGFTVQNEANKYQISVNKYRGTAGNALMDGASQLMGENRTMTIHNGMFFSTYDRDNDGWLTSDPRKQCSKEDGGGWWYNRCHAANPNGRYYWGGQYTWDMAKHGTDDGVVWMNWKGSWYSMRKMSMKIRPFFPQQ
T2 sequence (looked up) 3: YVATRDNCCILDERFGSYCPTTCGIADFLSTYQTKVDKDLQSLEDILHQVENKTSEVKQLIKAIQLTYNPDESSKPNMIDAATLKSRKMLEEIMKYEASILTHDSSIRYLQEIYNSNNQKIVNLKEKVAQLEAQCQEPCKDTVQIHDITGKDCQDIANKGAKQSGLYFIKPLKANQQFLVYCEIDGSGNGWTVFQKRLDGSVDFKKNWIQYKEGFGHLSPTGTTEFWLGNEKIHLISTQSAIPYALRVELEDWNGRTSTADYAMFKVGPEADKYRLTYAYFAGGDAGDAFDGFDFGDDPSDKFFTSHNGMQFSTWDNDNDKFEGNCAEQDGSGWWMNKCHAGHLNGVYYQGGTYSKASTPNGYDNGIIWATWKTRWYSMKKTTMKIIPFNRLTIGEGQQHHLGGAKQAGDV
Described as above. How it is done: as §1, §2

B1: recombinant reteplase-(3D5 VL-218-VH scFv α fibrin) protein (other)
chain: SYQGNSDCYFGNGSAYRGTHSLTESGASCLPWNSMILIGKVYTAQNPSAQALGLGKHNYCRNPDGDAKPWCHVLKNRRLTWEYCDVPSCSTCGLRQYSQPQFRIKGGLFADIASHPWQAAIFAKHRRSPGERFLCGGILISSCWILSAAHCFQERFPPHHLTVILGRTYRVVPGEEEQKFEVEKYIVHKEFDDDTYDNDIALLQLKSDSSRCAQESSVVRTVCLPPADLQLPDWTECELSGYGKHEALSPFYSERLKEAHVRLYPSSRCTSQHLLNRTVTDNMLCAGDTRSGGPQANLHDACQGDSGGPLVCLNDGRMTLVGIISWGLGCGQKDVPGVYTKVTNYLDWIRDNMRPASGGGGSGGGGSGGGGSDIQMTQSPSSLSASVGDRVTITCRASQDVSNNVAWYQQKPGKAPKLLIFWSPWLYSGVPSRFSGSGSGTDFTLTISSLQPEDFATYYCQQGWDSPVTFGQGTKVEIKRGSTSGSGKPGSGEGSTKGEVQLVESGGGLVQPGGSLRLSCAASGFTISDFGIHWVRQAPGKGLEWVASIWPSGGYTYYADSVKGRFTISADTSKNTAYLQMNSLRAEDTAVYYCARSWFYSWYDYWGQGTLVTVSS
notes: Fusion: reteplase, flexible linker, 3D5 VL, 218 linker, 3D5 VH; also called reteplase-(3D5 scFv); reteplase-(3D5-scFv)
Turning to B1, the binding result in assay [1] and in assay [2] was “binds” each time.

For the origin of these results see US20200157519A1 (IMMUNWORK, published 2020).
